Results published in patent publication US20260015420A1 (CENTESSA PHARMACEUTICALS UK, published 2026).

T1: cynomolgus monkey CD47-Fc (cynomolgus monkey, UniProt Q08722 19-139 (human entry), limits assumed)
T1 construct: also called cCD47; cyno CD47-Fc; not shown: Fc part
T1 chain: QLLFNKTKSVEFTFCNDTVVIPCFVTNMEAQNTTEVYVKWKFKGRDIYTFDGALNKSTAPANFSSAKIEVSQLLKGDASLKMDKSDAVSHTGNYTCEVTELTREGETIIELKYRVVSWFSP

T2: cynomolgus monkey CD47 on cyno CD47-transfected CHO-K1 cells (cynomolgus monkey, UniProt Q08722 19-323 (human entry))
T2 construct: CHO-K1 cells stably transfected with cyno CD47 full-length cDNA; also called cyno CD47+ cells; cyno CD47+CHO-K1
T2 chain: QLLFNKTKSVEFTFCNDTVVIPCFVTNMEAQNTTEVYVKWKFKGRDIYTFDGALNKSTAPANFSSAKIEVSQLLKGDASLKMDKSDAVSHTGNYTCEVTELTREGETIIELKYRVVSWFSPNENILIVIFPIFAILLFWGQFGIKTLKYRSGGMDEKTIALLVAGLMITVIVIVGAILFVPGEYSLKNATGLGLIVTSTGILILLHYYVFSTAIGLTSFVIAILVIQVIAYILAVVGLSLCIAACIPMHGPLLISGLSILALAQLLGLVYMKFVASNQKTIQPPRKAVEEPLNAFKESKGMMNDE


Assays:
[1] = target: T1, cynomolgus monkey CD47-Fc; assay: direct ELISA, coated cyno CD47-Fc, OD450
Description: (§1) To coat ELISA plates sold under the name Greiner Bio-One High Binding ELISA plates, target proteins were diluted to 1 μg/ml in carbonate buffer and added at 100 μl per well, at 4° C., o/n. Coated plates were washed 3× with PBS pH7.4, blocked with 1% BSA in PBS (380 μl/well) for 1 hr at RT, then washed 3× with PBS-non-ionic surfactant sold under the trademark Tween® 20 (PBST). CD47 antibodies (100 μl/well; diluted in PBST) were then added and then incubated 1 hr at RT. Plates were then washed 3× with PBST and goat anti-human kappa chain-HRP added (100 μl/well) at RT, for 1 hr. Plates were then washed 3× with PBST and twice with PBS before the addition of 100 μl TMB per well. Reactions were stopped by adding 100 μl 2M H₂SO₄/well and OD was read on a plate reader at 450 nm.

human CD47-Fc [2] = target: T3, human CD47-Fc (human, UniProt Q08722 19-139); assay: direct ELISA, coated human CD47-Fc, OD450
T3 construct: also called hCD47; human CD47-Fc protein; not shown: Fc part

human CD47-Fc [3] = target: T3, human CD47-Fc; assay: HTRF epitope competition; competitor Tb-labelled h5F9G4 IgG1 on biotinylated human CD47-Fc
Target sequence in this assay (Q08722 19-139 limits assumed): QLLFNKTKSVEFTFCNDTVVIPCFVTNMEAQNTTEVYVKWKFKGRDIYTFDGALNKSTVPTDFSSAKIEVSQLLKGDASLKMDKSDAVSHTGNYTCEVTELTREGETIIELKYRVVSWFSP

human CD47-Fc [4] = target: T3, human CD47-Fc; assay: direct ELISA, coated human CD47-Fc, OD450; remark: listed apart in the source
Target sequence in this assay (Q08722 19-139 limits assumed): as above
Description: as §1

[5] = target: T2, cynomolgus monkey CD47 on cyno …; assay: flow cytometry, CHO-K1 cells transfected with cyno CD47, MFI
Description: IgGs were tested at concentrations ranging from 24-100,000 ng/ml.
Antibodies shown to retain binding to CD47 by ELISA were analysed for concentration-dependent binding at the cell surface via flow cytometry. CHO-K1 cells were stably transfected with either human or cyno CD47 full-length cDNAs.

Row | Binder | binding result [1] | binding result (human CD47-Fc [2]) | IC50 (human CD47-Fc [3]) [µg/mL] | other results
1 | A-H3, human IgG1null (antibody, V domains shown, IgG1null; also called Clone A-H3) VH: EVQLVQSGAEVKKPGESLKISCKGSGYSFTNYNIHWVRQMPGKGLEWMGTIYPGNSDTSYNPSFQGQVTISADKSISTAYLQWSSLKASDTAMYYCARGGVRAMDYWGQGTLVTVSS VL: DIVMTQSPLSLPVTPGEPASISCRSSQSLLHSKGNTYLGWYLQKPGQSPQLLIYKGSNRFSGVPDRFSGSGSGTDFTLKISRVEAEDVGVYYCMQASQVPYTFGQGTKLEIK | binds | binds | – | –
2 | VH1.7/VL1.4, human IgG1null (antibody, V domains shown, VH assembled as for m35; IgG1null) VH: QVQLVQSGAEVKKPGASVKVSCKASGYTFTNYNIHWVRQAPGQRLEWMGTIYPGNDDTSYSQKFQGRVTITADTSASTAYMELSSLRSEDTAVYYCARGGFRAMDYWGQGTLVTVSS VL: DIVMTQSPLSLPVTPGEPASISCRSSQSLLHSNAYNYLGWYLQKPGQSPQLLIYKGSNRFSGVPDRFSGSGSGTDFTLKISRVEAEDVGVYYCFQASQVPYTFGQGTKLEIK | – | – | 22.6 | –
3 | VH1.7/VL1.5, human IgG1null (antibody, V domains shown, VH assembled as for m35; IgG1null; also called Clone VH1.7/VL1.5) VH: QVQLVQSGAEVKKPGASVKVSCKASGYTFTNYNIHWVRQAPGQRLEWMGTIYPGNDDTSYSQKFQGRVTITADTSASTAYMELSSLRSEDTAVYYCARGGFRAMDYWGQGTLVTVSS VL: DIVMTQSPLSLPVTPGEPASISCRSSQSLLHSNAYNYLGWYLQKPGQSPQLLIYKGSNRFSGVPDRFSGSGSGTDFTLKISRVEAEDVGVYYCFQASHVPYTFGQGTKLEIK | – | – | 9.53 | –
4 | VH1.12/VL1.8, human IgG1null (antibody, V domains shown, IgG1null; also called VH1.12/VL8) VH: QVQLVQSGAEVKKPGASVKVSCKASGYTFTNYAMHWVRQAPGQRLEWMGTIYPGNDNTKYNQKFQGRVTITADTSASTAYMELSSLRSEDTAVYYCARGGFRAMDYWGQGTLVTVSS VL: DIVMTQSPLSLPVTPGEPASISCRSSQSLLHSNAYNYLGWYLQKPGQSPQLLIYKGSNRFSGVPDRFSGSGSGTDFTLKISRVEAEDVGVYYCMQASHVPYTFGQGTKLEIK | – | – | 16.3 | –
5 | VH1.7/VL1.6, human IgG1null (antibody, V domains shown, VH assembled as for m35; IgG1null; also called Clone VH1.7/VL1.6) VH: QVQLVQSGAEVKKPGASVKVSCKASGYTFTNYNIHWVRQAPGQRLEWMGTIYPGNDDTSYSQKFQGRVTITADTSASTAYMELSSLRSEDTAVYYCARGGFRAMDYWGQGTLVTVSS VL: DIVMTQSPLSLPVTPGEPASISCRSSQSLLHSNANTYLGWYLQKPGQSPQLLIYKGSNRFSGVPDRFSGSGSGTDFTLKISRVEAEDVGVYYCFQASHVPYTFGQGTKLEIK | – | – | 4.64 | –
6 | B-D2, human IgG1null (antibody, V domains shown, IgG1null; also called Clone B-D2) VH: EVQLVQSGAEVKKPGESLKISCKGSGYSFTNYNIHWVRQMPGKGLEWMGTIYPGNSDTRYNPSFQGQVTISADKSISTAYLQWSSLKASDTAMYYCARGGERAMDYWGQGTLVTVSS VL: DIVMTQSPLSLPVTPGEPASISCRSSQSLLHSNGNTYLGWYLQKPGQSPQLLIYKGSNRFSGVPDRFSGSGSGTDFTLKISRVEAEDVGVYYCFQASQVPYTFGQGTKLEIK | binds | binds | – | –
7 | F-G3, human IgG1null (antibody, V domains shown, IgG1null; also called clone F-G3) VH: EVQLVQSGAEVKKPGESLKISCKGSGYSFTNYNIHWVRQMPGKGLEWMGTIYPGNSDTSYNHKFQGQVTISADKSISTAYLQWSSLKASDTAMYYCARGGNRAEDYWGQGTLVTVSS VL: DIVMTQSPLSLPVTPGEPASISCRSSQSLLHSNGNTYLGWYLQKPGQSPQLLIYKGSNRFSGVPDRFSGSGSGTDFTLKISRVEAEDVGVYYCMQASQVPYTFGQGTKLEIK | binds | binds | – | –
8 | VH1.9/VL1.6, human IgG1null (antibody, V domains shown, IgG1null) VH: QVQLVQSGAEVKKPGASVKVSCKASGYTFTNYAMHWVRQAPGQRLEWMGTIYPGNDDTKYSQKFQGRVTITADTSASTAYMELSSLRSEDTAVYYCARGGYRAEDYWGQGTLVTVSS VL: DIVMTQSPLSLPVTPGEPASISCRSSQSLLHSNANTYLGWYLQKPGQSPQLLIYKGSNRFSGVPDRFSGSGSGTDFTLKISRVEAEDVGVYYCFQASHVPYTFGQGTKLEIK | – | – | 11.1 | –
9 | VH1.1/VL1.6, human IgG1null (antibody, V domains shown, cf. claim 50); IgG1null; also called Clone VH1.1/VL1.6) VH: QVQLVQSGAEVKKPGASVKVSCKASGYTFTNYAMHWVRQAPGQRLEWMGTIYPGNDDTKYNQKFQGRVTITADTSASTAYMELSSLRSEDTAVYYCARGGYRAEDYWGQGTLVTVSS VL: DIVMTQSPLSLPVTPGEPASISCRSSQSLLHSNANTYLGWYLQKPGQSPQLLIYKGSNRFSGVPDRFSGSGSGTDFTLKISRVEAEDVGVYYCFQASHVPYTFGQGTKLEIK | – | – | 6.96 | –
10 | VH1.6/VL1.6, human IgG1null (antibody, V domains shown, VH assembled as for m35; IgG1null) VH: QVQLVQSGAEVKKPGASVKVSCKASGYTFTNYAMHWVRQAPGQRLEWMGTIYPGNDDTSYSQKFQGRVTITADTSASTAYMELSSLRSEDTAVYYCARGGYRAEDYWGQGTLVTVSS VL: DIVMTQSPLSLPVTPGEPASISCRSSQSLLHSNANTYLGWYLQKPGQSPQLLIYKGSNRFSGVPDRFSGSGSGTDFTLKISRVEAEDVGVYYCFQASHVPYTFGQGTKLEIK | – | – | 14 | –
11 | B-A6, human IgG1null (antibody, V domains shown, IgG1null; also called Clone B-A6) VH: EVQLVQSGAEVKKPGESLKISCKGSGYSFTNYNIHWVRQMPGKGLEWMGTIYPGDSDTRYNQKFQGQVTISADKSISTAYLQWSSLKASDTAMYYCARGGIRAMDYWGQGTLVTVSS VL: DIVMTQSPLSLPVTPGEPASISCRSSQSLLHSNGNTYLGWYLQKPGQSPQLLIYKGSNRFSGVPDRFSGSGSGTDFTLKISRVEAEDVGVYYCFQGSHVPYIFGQGTKLEIK | binds | binds | – | –
12 | C-D5, human IgG1null (antibody, V domains shown, IgG1null; also called Clone C-D5) VH: EVQLVQSGAEVKKPGESLKISCKGSGYSFTNYNIHWVRQMPGKGLEWMGTIYPGDSDTRYNPKFQGQVTISADKSISTAYLQWSSLKASDTAMYYCARGGIRAMDYWGQGTLVTVSS VL: DIVMTQSPLSLPVTPGEPASISCRSSQSLLHSNYNTYLGWYLQKPGQSPQLLIYKGSNRFSGVPDRFSGSGSGTDFTLKISRVEAEDVGVYYCFQGSQTPYTFGQGTKLEIK | binds | binds | – | –
13 | E-D6, human IgG1null (antibody, V domains shown, IgG1null; also called Clone E-D6) VH: EVQLVQSGAEVKKPGESLKISCKGSGYSFTNYNIHWVRQMPGKGLEWMGTIYPGDSDTSYNPKFQGQVTISADKSISTAYLQWSSLKASDTAMYYCARGGYRAEDYWGQGTLVTVSS VL: DIVMTQSPLSLPVTPGEPASISCRSSQSLLHSNGNTYLGWYLQKPGQSPQLLIYKGSNRFSGVPDRFSGSGSGTDFTLKISRVEAEDVGVYYCMQGSHVPYTFGQGTKLEIK | binds | binds | – | –
14 | VH1.8/VL1.1, human IgG1null (antibody, V domains shown, IgG1null (L234A/L235A/G237A); also called Clone VH1.8/VL1.1) VH: QVQLVQSGAEVKKPGASVKVSCKASGYTFTNYAMHWVRQAPGQRLEWMGTIYPGNDDTKYNQKFQGRVTITADTSASTAYMELSSLRSEDTAVYYCARGGFRAMDYWGQGTLVTVSS VL: DIVMTQSPLSLPVTPGEPASISCRSSQSLLHSNGNTYLGWYLQKPGQSPQLLIYKGSNRFSGVPDRFSGSGSGTDFTLKISRVEAEDVGVYYCFQASHVPYTFGQGTKLEIK | – | – | 0.459 | EC50 (read off the curve) (human CD47-Fc [4]): ~0.06 µg/mL; binding result [5]: binds
15 | E-C5, human IgG1null (antibody, V domains shown, IgG1null; also called Clone E-C5) VH: EVQLVQSGAEVKKPGESLKISCKGSGYSFTNYNIHWVRQMPGKGLEWMGTIYPGDSDTSYNPKFQGQVTISADKSISTAYLQWSSLKASDTAMYYCARGGYRAQDYWGQGTLVTVSS VL: DIVMTQSPLSLPVTPGEPASISCRSSQSLLHSNGNTYLGWYLQKPGQSPQLLIYKGSNRFSGVPDRFSGSGSGTDFTLKISRVEAEDVGVYYCMQASHVPYTFGQGTKLEIK | binds | binds | – | –
16 | D-C12, human IgG1null (antibody, V domains shown, IgG1null; also called Clone D-C12) VH: EVQLVQSGAEVKKPGESLKISCKGSGYSFTNYNIHWVRQMPGKGLEWMGTIYPGNSDTRYNPKFQGQVTISADKSISTAYLQWSSLKASDTAMYYCARGGFRAMDYWGQGTLVTVSS VL: DIVMTQSPLSLPVTPGEPASISCRSSQSLLHSNGNTYLGWYLQKPGQSPQLLIYKGSNRFSGVPDRFSGSGSGTDFTLKISRVEAEDVGVYYCMQGSHVPYTFGQGTKLEIK | binds | binds | – | –
17 | VH1.8/VL1.2, human IgG1null (antibody, V domains shown, IgG1null; also called Clone VH1.8/VL1.2) VH: QVQLVQSGAEVKKPGASVKVSCKASGYTFTNYAMHWVRQAPGQRLEWMGTIYPGNDDTKYNQKFQGRVTITADTSASTAYMELSSLRSEDTAVYYCARGGFRAMDYWGQGTLVTVSS VL: DIVMTQSPLSLPVTPGEPASISCRSSQSLLHSNGNTYLGWYLQKPGQSPQLLIYKGSNRFSGVPDRFSGSGSGTDFTLKISRVEAEDVGVYYCFQASQVPYTFGQGTKLEIK | – | – | 0.586 | EC50 (read off the curve) (human CD47-Fc [4]): ~0.06 µg/mL; binding result [5]: binds
